Assay [1] addresses β2 adrenergic receptor 148C-378C (min-C-β2AR with N148C and native C378) (human) (UniProt P07550). Briefly: FRET or BRET; single-molecule FRET (TIRF), receptor immobilised by FLAG/M1 Fab; titration of Gs^GDP with 100 μM isoproterenol and 20 μM cmpd-6 (positive allosteric modulator); 25 °C.
Assay [2] has the same target. The assay is described as follows: FRET or BRET; single-molecule FRET (TIRF), receptor immobilised by FLAG/M1 Fab; titration of Gs^GDP with 100 μM isoproterenol and 20 μM cmpd-15 (negative allosteric modulator); 25 °C. A general note: In BRET a luciferase serves as donor, and the signal depends on an acceptor being close.
Assay [3] shares this target. The assay is described as follows: FRET or BRET; single-molecule FRET (TIRF) between labels at 148C and 378C of the receptor; receptor immobilised by N-terminal FLAG on biotinylated M1 Fab; Gs^GDP 3.16 nM to 10 μM in solution; 200 μM isoproterenol; 25 °C; 50 mM HEPES pH 7.5, 100 mM NaCl, 5 mM MgCl2, 5 mM CaCl2, 0.01% MNG, 0.001% CHS; apparent EC50 of low-FRET occupancy.

pEC50: −log10 of the molar value.

As for “Gs heterotrimer (human Gαs, rat Gβ1, bovine Gγ2) (from UniProt P63092 1-394; P54311 1-340; P63212 1-71) (complex)”, the pEC50 (in general, −log10 of the EC50, conventionally taken in molar units) is 7.59 in assay [1], 6.46 in assay [2] and 7.00 in assay [3]. Moreover, the high-FRET dwell time, plateau at high Gs concentration in assay [3] is 2 s.

For the origin of these results see PMC10085991.
